Experimental data from publication PMC314469, “Protein Interaction Networks by Proteome Peptide Scanning” (PLoS Biology, 2004).

Tests used:
Assay in all cases: SPOT array
[1] = molecular target: T1, Boi1 SH3 (BOI1_YEAST), P38041
T1 chain: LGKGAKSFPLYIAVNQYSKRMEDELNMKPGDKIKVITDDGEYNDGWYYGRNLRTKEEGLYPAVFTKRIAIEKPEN

[2] = molecular target: T2, Boi2 SH3 (BOI2_YEAST), P39969
T2 chain: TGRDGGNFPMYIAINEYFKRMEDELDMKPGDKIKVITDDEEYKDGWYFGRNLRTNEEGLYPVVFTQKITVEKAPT

[3] = molecular target: T3, Myo5 SH3 (MYO5_YEAST), Q04439
T3 chain: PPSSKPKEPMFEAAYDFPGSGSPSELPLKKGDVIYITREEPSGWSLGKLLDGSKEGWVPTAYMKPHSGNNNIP

[4] = molecular target: T4, Rvs167 SH3 (RV167_YEAST), P39743
T4 chain: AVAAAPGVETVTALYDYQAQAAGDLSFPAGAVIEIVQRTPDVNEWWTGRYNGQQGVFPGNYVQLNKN

[5] = molecular target: Sho1 SH3 (SHO1_YEAST), P40073
Sequence of Sho1 SH3 (SHO1_YEAST), P40073 (P40073 295-366): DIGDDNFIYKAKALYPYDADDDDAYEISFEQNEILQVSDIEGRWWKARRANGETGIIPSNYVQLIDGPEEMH

[6] = molecular target: T5, Yfr024 SH3 (LSB3_YEAST), P43603
T5 chain: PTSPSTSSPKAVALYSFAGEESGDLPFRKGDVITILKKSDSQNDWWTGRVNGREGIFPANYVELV

[7] = molecular target: T6, Yhr016c SH3 (YSC84_YEAST), P32793
T6 chain: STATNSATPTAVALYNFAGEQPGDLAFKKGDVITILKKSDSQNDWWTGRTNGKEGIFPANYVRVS

| Binder | normalised SPOT signal, Boehringer light units (BLU); mean over the file's lines of this peptide [1] | normalised SPOT signal, Boehringer light units (BLU); mean over the file's lines of this peptide [2] | normalised SPOT signal, Boehringer light units (BLU); mean over the file's lines of this peptide [3] | normalised SPOT signal, Boehringer light units (BLU); mean over the file's lines of this peptide [4] | normalised SPOT signal, Boehringer light units (BLU); mean over the file's lines of this peptide [5] | normalised SPOT signal, Boehringer light units (BLU); mean over the file's lines of this peptide [6] | normalised SPOT signal, Boehringer light units (BLU); mean over the file's lines of this peptide [7] |
| --- | --- | --- | --- | --- | --- | --- | --- |
| GTTNRGPPPLPPRA [YLR144C 18-31] | 49900 | 30.6 | 39900 | 88000 | 626 | 43600 | 69100 |
| GNNSRNIPPPPPPP [YMR089C 148-161] | 61.5 | 14.2 | 10300 | 49.6 | 28.3 | 62 | 15.8 |
| GTGRRRSPSTPIMP [YNR047W 192-205] | 625 | 52 | 921 | 92.4 | 52.3 | 802 | 24 |
| GLVLRSTPVIPDMK [YPR019W 330-343] | 116 | 126 | 209 | 5260 | 60.9 | 2380 | 302 |
| GSLVKTKPTLPLTK [YLR339C 59-72] | 907 | 25.5 | 422 | 21.1 | 22.8 | 509 | 82.1 |
| GQQKRFSPSLPSAV [YKL088W 110-123] | 1200 | 9.3 | 728 | 111 | 47.2 | 697 | 140 |
| GTRPKILPKIPTGA [YOR227W 1148-1161] | 148 | 27.1 | 773 | 22.1 | 11800 | 432 | 31.6 |
| GLNLKWEPSTPQRN [YCR102C 154-167] | 447 | 4.6 | 105 | 10.9 | 62.8 | 1020 | 152 |
| GTVTKTAPSFPQSS [YPL075W 604-617] | 144 | 135 | 261 | 63.6 | 25.5 | 20 | 45.4 |
| GRSLRKRPTSPSIS [YJR059W 48-61] | 370 | 119 | 820 | 1120 | 44.9 | 440 | 106 |
| GRHLKNIPRIPIFS [YLR106C 2506-2519] | 702 | 6.1 | 1040 | 176 | 198 | 947 | 69.5 |
| GLMSKLGPNLPASI [YLR092W 403-416] | 118 | 40 | 287 | 275 | 63.1 | 606 | 41.6 |
| GSQWKNHPDWPFWV [YLR057W 726-739] | 133 | 9.6 | 108 | 46.8 | 14.5 | 69.9 | 18.7 |
| GSYIKRTPKIPEKD [YDR026C 219-232] | 129 | 32.5 | 206 | 153 | 554 | 436 | 52 |
| GQIDRDKPSEPERT [YJL184W 45-58] | 15 | 21 | 100 | 47.7 | 43.8 | 68.7 | 37.9 |
| GYDEKGNPIPPNNW [YJL216C 137-150] | 70 | 33.1 | 96 | 46.1 | 66.3 | 0 | 9.3 |
